Measured values from patent publication USRE49026 (MEDICAL DIAGNOSTIC LABORATORIES, dated 2022).
Bridges are numbered along the chain shown (N, C = ends). Where no end group is shown, it is not given here.

T1: human IL-23R expressed on the cell surface (human, UniProt Q5VWK5 24-629)
T1 sequence (looked up): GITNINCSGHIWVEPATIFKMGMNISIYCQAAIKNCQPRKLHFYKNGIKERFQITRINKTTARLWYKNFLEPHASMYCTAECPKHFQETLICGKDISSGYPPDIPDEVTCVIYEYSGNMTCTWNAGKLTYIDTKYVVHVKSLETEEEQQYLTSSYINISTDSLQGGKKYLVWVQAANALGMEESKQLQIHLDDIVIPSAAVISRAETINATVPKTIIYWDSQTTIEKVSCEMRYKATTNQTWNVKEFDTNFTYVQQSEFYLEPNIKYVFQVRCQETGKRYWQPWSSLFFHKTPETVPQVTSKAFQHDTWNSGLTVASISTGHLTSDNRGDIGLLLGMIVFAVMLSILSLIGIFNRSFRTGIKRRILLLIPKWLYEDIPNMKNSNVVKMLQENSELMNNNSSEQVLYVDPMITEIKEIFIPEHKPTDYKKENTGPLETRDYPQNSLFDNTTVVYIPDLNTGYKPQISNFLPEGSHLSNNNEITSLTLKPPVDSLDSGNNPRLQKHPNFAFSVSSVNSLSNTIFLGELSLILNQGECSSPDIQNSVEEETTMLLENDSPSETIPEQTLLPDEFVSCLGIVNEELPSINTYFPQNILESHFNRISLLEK

T2: WT IL-23 cytokine (wild type p19 + p40, expressed in 293T cells) (human, UniProt Q9NPF7 20-189; P29460 23-328)
T2 construct: conditioned medium in the ELISAs; purified on HisTALON for the reporter assay; also called isolated WT IL-23 cytokine; not shown: 6xHis tag at the C-terminus
T2 sequence (looked up) 1: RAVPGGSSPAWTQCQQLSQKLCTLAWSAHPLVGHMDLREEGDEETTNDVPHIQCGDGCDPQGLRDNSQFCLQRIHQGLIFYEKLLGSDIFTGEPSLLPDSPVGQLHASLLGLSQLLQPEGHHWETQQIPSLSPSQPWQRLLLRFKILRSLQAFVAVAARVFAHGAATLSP
T2 sequence (looked up) 2: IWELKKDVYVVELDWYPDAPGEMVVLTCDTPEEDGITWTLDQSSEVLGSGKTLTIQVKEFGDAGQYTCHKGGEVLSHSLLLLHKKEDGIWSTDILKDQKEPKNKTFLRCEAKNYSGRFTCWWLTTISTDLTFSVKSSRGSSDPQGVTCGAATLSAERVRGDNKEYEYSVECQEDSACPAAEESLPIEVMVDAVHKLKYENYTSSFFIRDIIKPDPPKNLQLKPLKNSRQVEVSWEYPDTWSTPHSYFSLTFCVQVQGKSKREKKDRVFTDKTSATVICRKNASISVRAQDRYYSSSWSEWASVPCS

T3: recombinant mouse IL-23R-Fc (mouse, UniProt Q8K4B4 24-374, limits assumed)
T3 construct: whole entry named; not shown: Fc part, not described
T3 sequence (looked up): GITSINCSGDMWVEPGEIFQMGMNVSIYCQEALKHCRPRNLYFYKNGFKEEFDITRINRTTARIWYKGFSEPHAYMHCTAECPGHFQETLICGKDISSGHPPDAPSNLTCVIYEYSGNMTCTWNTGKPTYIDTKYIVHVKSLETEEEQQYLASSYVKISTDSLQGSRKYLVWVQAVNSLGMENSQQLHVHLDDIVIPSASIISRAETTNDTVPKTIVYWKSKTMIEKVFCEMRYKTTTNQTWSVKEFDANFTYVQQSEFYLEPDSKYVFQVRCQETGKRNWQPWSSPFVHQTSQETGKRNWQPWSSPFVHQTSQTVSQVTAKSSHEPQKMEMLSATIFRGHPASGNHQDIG

B1: recombinant human IL-23 (ligand)
chain 1: T2 sequence (looked up) 1
chain 2: T2 sequence (looked up) 2
B2: recombinant human IL-23R/Fc chimera (Fc fusion, UniProt Q5VWK5 24-353, looked up)
chain: GITNINCSGHIWVEPATIFKMGMNISIYCQAAIKNCQPRKLHFYKNGIKERFQITRINKTTARLWYKNFLEPHASMYCTAECPKHFQETLICGKDISSGYPPDIPDEVTCVIYEYSGNMTCTWNAGKLTYIDTKYVVHVKSLETEEEQQYLTSSYINISTDSLQGGKKYLVWVQAANALGMEESKQLQIHLDDIVIPSAAVISRAETINATVPKTIIYWDSQTTIEKVSCEMRYKATTNQTWNVKEFDTNFTYVQQSEFYLEPNIKYVFQVRCQETGKRYWQPWSSLFFHKTPETVPQVTSKAFQHDTWNSGLTVASISTGHLTSDNRGD
notes: range 24-353; bought (R&D Systems Cat. No. 1400-IR-050); also called rhIL23R-Fc; IL-23R/Fc fusion protein; not shown: human IgG1 Fc, residues 100-330
B3: cyclic peptide no. 2HT AA (peptide)
peptide: AKMTWVDYWLKNCA
modifications: cyclic: head-to-tail amide bond (alanine to alanine)
notes: cyclised form of linear peptide no; also called cyclic polypeptide no; 2HT AA (Head to Tail: Alanine to Alanine)

How the values were obtained:
[1] = target: B2; experiment: phage display panning, protein A capture
[2] = target: B2; experiment: phage ELISA on coated IL-23R/Fc, anti-M13 detection
[3] = target: T1, human IL-23R expressed on the cell …; experiment: cell-based or functional assay
[4] = target: T2, WT IL-23 cytokine (wild type p19 + p40, …); experiment: ELISA of conditioned media on coated IL-23R-Fc, anti-p40 detection
[5] = target: B2; experiment: competitive ELISA against IL-23 (50 ng/well) on coated IL-23R-Fc
[6] = target: T3, recombinant mouse IL-23R-Fc; experiment: competitive ELISA against mouse IL-23 on coated mouse IL-23R-Fc
[7] = target: B2; experiment: cell-free competitive ELISA against IL-23 on coated IL-23R-Fc
[8] = target: IL-23 receptor on Sprague Dawley rat splenocytes (rat); experiment: cell-based or functional assay
[9] = target: B2; experiment: competitive ELISA on coated IL-23R-Fc, 50 µM peptide

AVWQNYWNEQLY (peptide, not shown: large carriers) [M13 phage displaying polypeptide no. 22]: binds [1].

QSDTWMTYWKHH (peptide, not shown: large carriers) [M13 phage displaying polypeptide no. 7]: binds [2].

EPFAWHAYWVRN (peptide, not shown: large carriers) [M13 phage displaying polypeptide no. 29]: binds [1].

ASWEMYWATSYN (peptide, not shown: large carriers) [M13 phage displaying polypeptide no. 10]: binds [2].

HDWQTYWVTRER (peptide, not shown: large carriers) [M13 phage displaying polypeptide no. 30]: binds [1].

In the case of B1, the “reporter luciferase activity, DB STAT3-Luc cells, 50 ng/ml” value [3] is reported as about 10 fold.

STWQEYYDVWQK (peptide, not shown: large carriers) [M13 phage displaying polypeptide no. 18]: binds [1].

NWTSQLHTGIST (peptide, not shown: large carriers, also called nos) [M13 phage displaying polypeptide no. 5]: binds [2].

AWQDVWKMHNKV (peptide, not shown: large carriers) [M13 phage displaying polypeptide no. 25]: binds [1].

MPDWHAFYLQAQ (peptide, not shown: large carriers) [M13 phage displaying polypeptide no. 6]: binds [2].

B2: binds [4].

With NWATYWQLRHQT (also called peptide number 9) [synthetic polypeptide no. 9] the IC50 [5] was about 3000 nM.

In the case of CAMTWQDYWLYGRC (disulfide 1-14, also called cyc23.15) [cyclic polypeptide no. 23.19], the IC50 [6] is reported as 12500 nM and the “IC50, DB STAT3-Luc reporter cells, 50 ng/ml IL-23” value [3] is reported as 2500 nM.

TSWQSFWHHHNT (peptide, not shown: large carriers) [M13 phage displaying polypeptide no. 32]: binds [1].

DSDWRWFWENHW (peptide, not shown: large carriers) [M13 phage displaying polypeptide no. 15]: binds [1].

YSWEWYATRFVQ (peptide, not shown: large carriers) [M13 phage displaying polypeptide no. 13]: binds [1].

Work on AMTWEDWWLYGR (also called peptide number 23) [synthetic polypeptide no. 23] yielded an IC50 [5] of 0 to 1560 nM.

SALSWEHYWRKH (peptide, not shown: large carriers, also called no) [M13 phage displaying polypeptide no. 20]: binds [1].

AETPSWYNYWMN (peptide, not shown: large carriers, also called nos) [M13 phage displaying polypeptide no. 4]: binds [2].

For B3, the IC50 [7] was 8.1 nM, the “IC50, IL-17F production (ELISA) in differentiated human Th17 cells, 1 ng/ml IL-23” value [3] was 339 nM and the “IC50, IL-22 production (ELISA) in human PBMC, 2 ng/ml IL-23” value [3] was 338 nM. The “IC50, cell-based DB-Luc assay” value [3] was 342 nM and the “IC50, IL-17F mRNA (qRT-PCR) in rat splenocytes, 200 ng/ml IL-23” value [8] was 270 nM.

With DDWMQYWRQQVR [synthetic polypeptide no. 27] the IC50 [5] was about 1560 nM.

With SGASWVQYWVQR (also called peptide number 1) [synthetic polypeptide no. 1] the IC50 [5] was 6250 to 12500 nM, the “relative level of p-STAT3/STAT3 at 50 µM peptide” value [3] was about 0.6 ratio and the “relative level of p-STAT3/STAT3 at 100 µM peptide” value [3] was about 0.3 ratio. The “relative p-STAT3/STAT3 level at 10 µM, 5 µM and 1 µM peptide” value [3] was over 1.5 ratio.

SGASFVQYWVQR [modified synthetic polypeptide no. 1.1] was tested, and the “OD450 of bound IL-23 with the peptide as competitor” value [9] was at least 0.4 OD450.

For SGASFVQYFVQR [modified synthetic polypeptide no. 1.3], the “OD450 of bound IL-23 with the peptide as competitor” value [9] was at least 0.4 OD450.

In the case of SGASWVQYFVQR [modified synthetic polypeptide no. 1.2], the “OD450 of bound IL-23 with the peptide as competitor” value [9] is reported as at least 0.4 OD450.

DQERWLSYFLGT (peptide, not shown: large carriers) [M13 phage displaying polypeptide no. 3]: binds [1].

NWIDWWTQSEKH (peptide, not shown: large carriers) [M13 phage displaying polypeptide no. 19]: binds [1].

TENWWTMVPRWM (peptide, not shown: large carriers) [M13 phage displaying polypeptide no. 2]: binds [1].
